In US20090285803A1 (published 2009):

T1: Nogo Receptor (human, UniProt Q9BZR6 27-447)
T1 construct: whole, on cells; also called NgR; NgR1
T1 sequence (looked up): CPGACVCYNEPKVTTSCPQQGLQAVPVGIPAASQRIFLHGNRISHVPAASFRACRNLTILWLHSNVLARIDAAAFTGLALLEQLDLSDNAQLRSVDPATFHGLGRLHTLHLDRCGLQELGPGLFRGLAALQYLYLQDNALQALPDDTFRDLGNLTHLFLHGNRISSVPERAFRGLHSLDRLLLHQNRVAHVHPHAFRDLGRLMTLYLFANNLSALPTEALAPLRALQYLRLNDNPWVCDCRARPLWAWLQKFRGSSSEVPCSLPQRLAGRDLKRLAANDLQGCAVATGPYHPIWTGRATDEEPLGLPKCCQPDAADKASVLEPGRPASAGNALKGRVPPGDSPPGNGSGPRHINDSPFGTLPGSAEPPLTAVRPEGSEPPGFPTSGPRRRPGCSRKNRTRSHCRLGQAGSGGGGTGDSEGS

B1: AP-Nogo66 (ligand, UniProt Q9NQC3 1055-1120, looked up)
chain: RIYKGVIQAIQKSDEGHPFRAYLESEVAISEELVQKYSNSALGHVNCTIKELRRLFLVDDLVDSLK
notes: Produced in conditioned medium of 293 cells; also called Alkaline Phosphatase-Nogo66 fusion; not shown: Alkaline Phosphatase (AP)

Experiments:
Nogo Receptor = target: T1, Nogo Receptor; assay: expression cloning; AP-fusion bait (20-50 nM) on transfected COS7 cells, chromogenic AP staining
Source text: (§1) To identify novel receptors for inhibitory myelin proteins, an expression cloning approach was taken. As bait, constructs were generated that fused Alkaline Phosphatase (AP) to the N- and/or C-terminus of the following characterized myelin inhibitors (human cDNA used): Nogo66, two additional inhibitory domains of NogoA (NiRD2 and NiG20) (Oertle T, J Neurosci. 2003, 23(13): 5393-406), MAG, and OMgp. These constructs were transfected into 293 cells to produce conditioned medium (in DMEM/2% FBS) containing the bait proteins. The cDNA library used in the screen was comprised of full-length human cDNA clones in expression-ready vectors generated by Origene. These cDNAs were compiled, arrayed, and pooled. Pools of approximately 100 cDNA's were transiently transfected into COS7 cells.
(§2) In particular, on Day 1, COS7 cells were plated at a density of 85, 000 cells per well in 12-well plates. On Day 2, 1 mg of pooled cDNA's were transfected per well using the lipid-based transfection reagent FuGENE 6 (Roche). On Day 4, screening was performed. […] The cells were washed once in AP Buffer (100 mM NaCl, 5 mM MgCl₂, 100 mM Tris pH 9.5), and incubated in chromogenic substrate (Western Blue, Promega), and analyzed for presence of reaction product one hour after incubation, and again after overnight incubation. […]

AP-Nogo66 = target: B1; assay: as above
Source text: as §1, §2

Binder	binding result (Nogo Receptor)	binding result (AP-Nogo66)
B1	binds	
Homo sapiens leukocyte immunoglobulin-like receptor, subfamily B (with TM and ITIM domains), member 2 (LILRB2) (receptor, Full-length human cDNA clone expressed in COS7 cells; also called MIG10; ILT4) QTGTIPKPTLWAEPDSVITQGSPVTLSCQGSLEAQEYRLYREKKSASWITRIRPELVKNGQFHIPSITWEHTGRYGCQYYSRARWSELSDPLVLVMTGAYPKPTLSAQPSPVVTSGGRVTLQCESQVAFGGFILCKEGEDEHPQCLNSQPHARGSSRAIFSVGPVSPNRRWSHRCYGYDLNSPYVWSSPSDLLELLVPGVSKKPSLSVQPGPVVAPGESLTLQCVSDVGYDRFVLYKEGERDLRQLPGRQPQAGLSQANFTLGPVSRSYGGQYRCYGAYNLSSEWSAPSDPLDILITGQIHGTPFISVQPGPTVASGENVTLLCQSWRQFHTFLLTKAGAADAPLRLRSIHEYPKYQAEFPMSPVTSAHAGTYRCYGSLNSDPYLLSHPSEPLELVVSGPSMGSSPPPTGPISTPAGPEDQPLTPTGSDPQSGLGRHLGVVIGILVAVVLLLLLLLLLFLILRHRRQGKHWTSTQRKADFQHPAGAVGPEPTDRGLQWRSSPAADAQEENLYAAVKDTQPEDGVEMDTRAAASEAPQDVTYAQLHSLTLRRKATEPPPSQEREPPAEPSIYATLAIH		binds
